Denaturant m value and unfolding free energy data for one protein are collected here from FireProtDB (doi:10.1021/bi001735j).

For this data set the following is noted: Homo sapiens, pH 7, 25 °C, GdnHCl, CD, sodium cacodylate 50 mM, NaCl 50 mM, whole UniProt chain shown.

“And” between values parts separate entries of the source, which are not always exact repeats. Identical values can stand only once.

B1: Alpha-lactalbumin wild type, P00709 (protein)
chain: MRFFVPLFLVGILFPAILAKQFTKCELSQLLKDIDGYGGIALPELICTMFHTSGYDTQAIVENNESTEYGLFQISNKLWCKSSQVPQSRNICDISCDKFLDDDITDDIMCAKKILDIKGIDYWLAHKALCTEKLEQWLCEKL
With B1, the denaturant m value was 2.9 kcal/mol/M and 2.4 kcal/mol/M and 4.4 kcal/mol/M; the unfolding free energy is 6.9 kcal/mol and 7.2 kcal/mol and 13.8 kcal/mol. Besides, the denaturant m value (transition: 3) was 2.2 kcal/mol/M and 0.77 kcal/mol/M and 0.75 kcal/mol/M.
